# Test results: US11497796B2, “Agents directed against a cis RGMa/neogenin interaction or lipid rafts and use of the same in methods of treatment” (UNIVERSITY HEALTH NETWORK, priority 2013, dated 2022)
# Legend:
# [1] = target: T1, 6FNIII-domain of Neogenin (Gallus gallus, UniProt Q90610); test: ELISA / AP binding assay of RGMa peptides to Neogenin domains; conditions: Neogenin domains fused to AP
# T1 construct: made in house
# T1 sequence (Q90610 429-1036): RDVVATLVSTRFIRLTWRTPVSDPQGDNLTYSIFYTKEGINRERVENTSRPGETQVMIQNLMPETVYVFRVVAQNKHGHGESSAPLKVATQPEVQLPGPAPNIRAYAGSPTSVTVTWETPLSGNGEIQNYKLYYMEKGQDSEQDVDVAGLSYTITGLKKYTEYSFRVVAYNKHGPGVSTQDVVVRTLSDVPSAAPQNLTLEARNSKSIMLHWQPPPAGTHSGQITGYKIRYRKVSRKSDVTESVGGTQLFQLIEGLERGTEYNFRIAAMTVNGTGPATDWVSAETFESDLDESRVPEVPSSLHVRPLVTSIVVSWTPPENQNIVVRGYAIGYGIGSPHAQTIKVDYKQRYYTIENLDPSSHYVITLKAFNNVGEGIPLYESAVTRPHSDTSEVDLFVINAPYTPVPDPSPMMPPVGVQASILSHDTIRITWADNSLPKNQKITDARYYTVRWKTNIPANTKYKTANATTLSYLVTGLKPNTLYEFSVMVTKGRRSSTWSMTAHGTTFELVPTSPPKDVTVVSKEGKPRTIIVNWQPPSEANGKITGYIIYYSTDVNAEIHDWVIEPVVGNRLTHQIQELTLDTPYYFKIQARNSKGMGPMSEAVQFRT
# Text: (§1) Specifically, the 4Ig-domain and 6FNIII-domain of Neogenin were each fused to alkaline phosphatase (AP). The 4Ig-domain and 6FNIII-domain of Neogenin were found in the extracellular portion of Neogenin. Accession No. AAC59662 (SEQ ID NO:1) was the amino acid sequence of Neogenin. The 4Ig-domain was amino acids 1 to 383 of Accession No. AAC59662 (SEQ ID NO:1). The 6FNIII-domain was amino acids 429 to 1036 of Accession No. AAC59662 (SEQ ID NO:1).
# (§2) The binding of these fusions to various RGMa peptides were analyzed in an ELISA assay (FIG. 2A).
# (§3) To determine if distinct N-terminal regions of RGMa bound the 4Ig- and 6FNIII-domains of Neogenin, peptides were generated that spanned the N-terminal region of RGMa. The amino acid sequence of RGMa was Accession No. NP_989868.1 (SEQ ID NO:6). These peptides were a peptide spanning amino acids 28-73 of RGMa (also referred to herein as “N-Raft”) and a peptide spanning amino acids 77-113 of RGMa (also referred to herein as “N-inh”). […] In a complementary experiment, in which the N-Raft and N-inh peptides of RGMa were fused with AP instead of the 4Ig- and 6FNIII-domains of Neogenin, N-Raft bound to the 4Ig-domain and not the 6FNIII-domain while N-inh bound to the 6FNIII-domain and not the 4Ig-domain (FIG. 9). Additionally, N-inh and N-Raft coated beads pulled down 6FNIII-domain and 4Ig-domain, respectively, which was consistent with the ELISA results described above (FIG. 2B).
# (§4) The assay was conducted in a 96-well microtiter plate (Corning Incorporated). The wells were coated with 100 μl (10 μg/mL) of Poly-L-Lysine at 4° C. overnight. Wells were then washed three times with 100 μl of PB ST (+0.02% Tween).
# (§5) 50 μl (2.5 μg/mL) of His-tagged: Full-length Neogenin; the 4Ig-domain of Neogenin; and 6FNIII-domain of Neogenin were coated onto each well for 1 hour at 37° C. Following three washes of 100 μl PBST, each well was then blocked with 300 μl of 3% BSA in PBST for 1 hour at 37° C.
# (§6) 50 μl (1.0 μg/mL) AP-tagged: N-RGMa (28-73); N-RGMa (28-54); N-RGMa (40-62); N-RGMa (54-73); N-RGMa (54-62) in 1% BSA+PBST was then added to each well and incubated at 37° C. for 1 hour. Each well was washed thoroughly three times with 100 μl PBST followed by subsequent equilibration of each well with Alkaline Phosphatase (AP) developing buffer (100 mM NaHCO3, 1 mM MgCl2). The reaction was developed using AP developing buffer supplemented with, p-nitrophenyl phosphate (pNPP) (Sigma-Aldrich) and allowed to develop until color development. The reaction was stopped with the addition of 50 μl (0.1M) NaOH. The absorbance of each reaction was measured using a microplate autoreader (BIO-TEK Instruments Inc.) at 405 nanometers (nm) wavelength.
# [2] = target: T2, 6FNIII-domain of Neogenin (His-6FNIII) (Gallus gallus, UniProt Q90610); test: Pull-down assay with peptide-coated beads; format: binding; conditions: Western blot with anti-His
# T2 construct: His; made in house
# T2 sequence (Q90610 429-1036): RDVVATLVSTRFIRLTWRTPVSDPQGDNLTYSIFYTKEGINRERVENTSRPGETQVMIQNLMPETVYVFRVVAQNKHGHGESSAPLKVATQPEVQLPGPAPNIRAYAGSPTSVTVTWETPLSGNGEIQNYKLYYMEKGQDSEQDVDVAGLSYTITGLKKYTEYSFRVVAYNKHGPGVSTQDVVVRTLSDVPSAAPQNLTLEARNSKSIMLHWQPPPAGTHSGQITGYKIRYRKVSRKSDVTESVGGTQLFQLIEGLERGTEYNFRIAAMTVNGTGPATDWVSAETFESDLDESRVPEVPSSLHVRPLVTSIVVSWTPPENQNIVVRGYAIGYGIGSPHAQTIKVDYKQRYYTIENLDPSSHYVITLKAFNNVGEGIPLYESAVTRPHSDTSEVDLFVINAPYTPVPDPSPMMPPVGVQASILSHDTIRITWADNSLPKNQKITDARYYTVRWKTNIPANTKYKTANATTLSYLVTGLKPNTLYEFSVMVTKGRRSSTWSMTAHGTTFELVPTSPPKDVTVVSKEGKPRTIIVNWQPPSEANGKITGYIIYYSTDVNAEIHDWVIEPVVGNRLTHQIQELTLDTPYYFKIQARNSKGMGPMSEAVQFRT
# Description: (A) RGMa proteins were incubated on plates coated with 4Ig- or 6FNIII-AP. One C- and one N-RGMa domain (N-RGMa^77-113) interacted with 6FNIII. One N-RGMa domain (N-Raft) interacted with 4Ig. (B) Supernatants (Sup) from cells expressing His-6FNIII or His-4Ig, were pulled down (IP) with beads coated with N-Raft, N-RGMa^50-99, and N-inh. Western Blot was then performed with an anti-His antibody to reveal whether or not His-6FNIII or His-4Ig interacted with the coated beads. […] Data are average±SEM (n=3 independent experiments), *p<0.0001. Scale bar, 100 μm. (E) Chick brains were injected with control peptide (Ctrl; N-RGMa^50-99), 4Ig, N-Raft, or Noggin 1 day before preparing membrane fractionations. In control experiments, Neogenin localized to the Flotillin/RGMa-containing lipid raft fraction (as shown in solid lined boxes). 4Ig, N-Raft, or Noggin shifted Neogenin to heavy fractions.
# Proteins were coupled to activated CNBr Sepharose beads (Pharmacia) according to supplier instructions. Supernatants from transfected cells were added to coupled beads for 2 h at room temperature (RT). Beads were then washed 6× with PBS plus 0.02% Tween 20, and SDS loading buffer was added. Samples were boiled and subjected to Western blotting.
# [3] = system: temporal retinal explants (axonal outgrowth); test: Retinal explants outgrowth assay; format: cell-based, chick; conditions: for effect on axonal outgrowth when provided as growth substrate (in trans): protein as substrate
# Description: Poly-L-Lysine (SIGMA; 10 μg/ml) coated glass coverslips were treated with Laminin (Invitrogen; 10 μg/ml) and RGMa proteins (5 μg/ml) and incubated for 3 hours at room temperature. Temporal retinal explants were cultured on protein-coated surfaces for 18 hours. To disrupt the lipid rafts, explants were pretreated with 10 mM methyl-β-cyclodextrin (MβCD) for 12 minutes or 2 U/ml cholesterol oxidase (CO) for 1 hour at 37° C. Explants were then fixed with 4% paraformaldehyde (PFA) and stained with Alexa488-phalloidin. Fiber length was quantified using Image Pro 5.0. For immunolocalization, explants were treated with Cholera Toxin B-FITC (C1655; Sigma; 10 mg/mL) and patched, fixed and stained with Neogenin antibody. Retinal ganglion cells (RGCs) were electroporated with RGMa-His and cultured for 18 hours. The cells were fixed and stained with Neogenin and His-tag antibodies.
# Retinal explants outgrowth assay. Poly-L-Lysine (PLL; SIGMA; 10 μg/ml) coated glass coverslips were treated with Laminin (10 μg/ml; Invitrogen) and RGMa proteins (5 μg) and incubated for 3 hrs at room temperature. PLL treated coverslips were coated with myelin overnight (6 μg/cm2), followed by coating with Laminin. Temporal retinal explants were cultured on either myelin or protein-coated surfaces in DMEM F-12 media (2% chick serum, 10% FBS) for 18 h. To disrupt rafts, explants were pre-treated with 10 mM MβCD for 12 min or 2 U/ml CO for 1 h at 37° C., washed, and cultured on protein coated coverslips. Explants were then fixed with 4% PFA and stained with Alexa488-fluor-phalloidin (1:50; Molecular Probes). Fiber length was quantified using Image Pro 5.0.
# Statistical analysis of retinal outgrowth assays was performed using Student's two-tail t-test using Excel (Microsoft). Results were expressed as the mean±SEM (n=at least 3 independent experiments; 2 duplicates per independent experiment, >10 explants per duplicate).
# 4Ig-domain of Neogenin = target: T3, 4Ig-domain of Neogenin (Gallus gallus, UniProt Q90610); test: ELISA / AP binding assay of RGMa peptides to Neogenin domains; conditions: for interaction with the 4Ig-domain of Neogenin: ELISA, Neogenin domains fused to AP
# T3 construct: made in house
# T3 sequence (Q90610 1-383): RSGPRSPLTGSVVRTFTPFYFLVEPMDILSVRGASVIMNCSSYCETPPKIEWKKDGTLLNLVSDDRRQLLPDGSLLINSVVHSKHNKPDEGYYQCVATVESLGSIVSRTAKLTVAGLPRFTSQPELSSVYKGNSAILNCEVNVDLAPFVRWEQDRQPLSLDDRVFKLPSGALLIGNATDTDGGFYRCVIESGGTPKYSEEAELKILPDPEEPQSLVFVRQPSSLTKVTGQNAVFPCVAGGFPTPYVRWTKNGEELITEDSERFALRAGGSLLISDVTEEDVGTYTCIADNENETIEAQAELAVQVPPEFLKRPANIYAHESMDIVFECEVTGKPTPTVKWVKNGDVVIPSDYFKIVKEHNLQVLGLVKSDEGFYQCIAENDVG
# Text: as §1, §2, §3, §4, §5, §6
# retinal cells = test: Ocular ischemia by ligation of the main optic artery, cell survival; format: in vivo, rat; conditions: injection into the eye after ligation
# Description: (A,B,C) Schematic representation of the experiments performed on the eye. A) the main artery was ligated to stop blood flow for 15 min. B) RGMa was injected into the eye vitreous just after ligation. C) 2 weeks after ligation, retrograde labeling was performed to assess cell survival. D) Representation of the retinal areas used for quantification. E) Quantification of cell survival performed on 8 rats for each condition.
# To extend this study, whether RGMa injection into the eye affected cell survival after ligation of the main optic artery to induce ocular ischemia was tested.
# retinal whole mounts = test: Oxygen Glucose Deprivation (OGD) in retinal whole mounts, PI staining; format: cell-based; conditions: added to the medium, OGD 1 hour, 24 hours
# Description: Specifically, retinal whole mounts were subjected to OGD for 1 hour. After ischemia, whole mounts were incubated for 24 hours and dead cells were identified using propidium iodide (PI) staining.
# To determine whether Neogenin required lipid raft association to induce cell death, OGD was performed on retinal whole mounts in the presence of 4Ig, which as described above, prevented Neogenin localization into lipid rafts.
molecule,measurement,setting,value
N-inh: peptide spanning amino acids 77-113 of RGMa (GDLAYHSAVHGIDDLMVQHNCSKDGPTSQPRLRTLPP; left off: small tags and cut ends),interaction with the 6FNIII-domain of Neogenin,[1],interacted
same,pull-down of 6FNIII-domain by peptide-coated beads,[2],pulled down
same,axonal growth on peptide as substrate,"[3]; RGMa peptide as substrate, controls 238.1±9.3 μm",88.1±13.3 μm
"N-RGMa: N-terminal RGMa isoform of the CNS (protein, Mouse N-RGMa, N-terminal RGMa isoform of the CNS) MQPPRERLVVTGRAGWMGMGRGAGRSALGLWPTLAFLLCSFPAAISPCKILKCNSEFWSATSSGSHAPASDDVPEFCAALRTYALCTRRTARTCRGDLAYHSAVHGIEDLMSQHNCSKDGPTSQPRVRTLPPAGDSQERSDSPEICHYEKSFHKHSAAPNYT",interaction with the 6FNIII-domain of Neogenin,[1],interacted
same,interaction with the 4Ig-domain of Neogenin,4Ig-domain of Neogenin,interacted
same,effect on axonal outgrowth when provided as growth substrate (in trans),[3],blocked axon growth
RGMaΔ: RGMaΔ was full-length RGMa (protein) CKILKCNSEFWAATSGSHHLGAEETPEFCTALRAYAHCTRRTARTCRGDLAYHSAVHGIDDLMVQHNCSKDGPTSQPRLRTLPPGDSQERSDSPEICHYEKSFHKHSAAPNYTHCGLFGDPHLRTFTDTFQTCKVQGAWPLIDNNYLNVQVTNTPVLPGSSATATSKLTIIFKSFQECVEQKVYQAEMDELPAAFADGSKNGGDKHGANSLKITEKVSGQHIEIQAKYIGTTIVVRQVGRYLTFAVRMPEEVVNAVEDRDSQGLYLCLRGCPLNQQIDFQTFRLAQAAEGRARRKGPSLPAPPEAFTYESATAKCREKLPVEDLYFQSCVFDLLTTGDVNFMLAAYYAFEDVKMLHSNKDKLHLYERTRALAPGN,interaction with the 6FNIII-domain of Neogenin,[1],interacted
same,binding to the 4Ig-domain of Neogenin,4Ig-domain of Neogenin; AP-tagged fragments 1.0 μg/mL on coated His-tagged 4Ig,did not bind
same,interaction with the 4Ig-domain of Neogenin,4Ig-domain of Neogenin,did not interact
same,effect on axonal outgrowth when provided as growth substrate (in trans),[3],blocked axon growth
RGMa: Repulsive Guidance Molecule A added to the medium or injected into the eye (protein) PHLRTFTDTFQTCKVQGAWPLIDNNYLNVQVTNTPVLPGSSATATSKLTIIFKSFQECVEQKVYQAEMDELPAAFADGSKNGGDKHGANSLKITEKVSGQHIEIQAKYIGTTIVVRQVGRYLTFAVRMPEEVVNAVEDRDSQGLYLCLRGCPLNQQIDFQTFRLAQAAEGRARRKGPSLPAPPEAFTYESATAKCREKLPVEDLYFQSCVFDLLTTGDVNFMLAAYYAFEDVKMLHSNKDKLHLYERTRALAPGN,enhancement of survival compared to controls,retinal cells,up to 2 times
same,cell survival after OGD,retinal whole mounts,promoted cell survival
